Values of other authors as cited in publication PMC8298264, “Function of cofactor Akirin2 in the regulation of gene expression in model human neutrophil-like HL60 cells” (Bioscience Reports, 2021).

Tested on: AKR2
Parameters: key: A: Very high confidence in the interaction; B: High confidence in the interaction; D: Moderate confidence in the interaction
Details: AKR2-interacting proteins (IPs), physical interactome; ref https://doi.org/10.3390/vaccines8010077; cited from earlier work
Excerpt: Supplement BSR-2021-1120_supp1.zip/BSR-2021-1120_suppST4.xlsx, sheet "BPs related to AKR2-IPs" | column: Predicted Biological Score (PBS)

B1: SIRT1 (protein, UniProt Q96EB6 2-747, looked up)
NAD-dependent protein …: ADEAALALQPGGSPSAAGADREAASSPAGEPLRKRPRRDGPGLERSPGEPGGAAPEREVPAAARGCPGAAAAALWREAEAEAAAAGGEQEAQATAAAGEGDNGPGLQGPSREPPLADNLYDEDDDDEGEEEEEAAAAAIGYRDNLLFGDEIITNGFHSCESDEEDRASHASSSDWTPRPRIGPYTFVQQHLMIGTDPRTILKDLLPETIPPPELDDMTLWQIVINILSEPPKRKKRKDINTIEDAVKLLQECKKIIVLTGAGVSVSCGIPDFRSRDGIYARLAVDFPDLPDPQAMFDIEYFRKDPRPFFKFAKEIYPGQFQPSLCHKFIALSDKEGKLLRNYTQNIDTLEQVAGIQRIIQCHGSFATASCLICKYKVDCEAVRGDIFNQVVPRCPRCPADEPLAIMKPEIVFFGENLPEQFHRAMKYDKDEVDLLIVIGSSLKVRPVALIPSSIPHEVPQILINREPLPHLHFDVELLGDCDVIINELCHRLGGEYAKLCCNPVKLSEITEKPPRTQKELAYLSELPPTPLHVSEDSSSPERTSPPDSSVIVTLLDQAAKSNDDLDVSESKGCMEEKPQEVQTSRNVESIAEQMENPDLKNVGSSTGEKNERTSVAGTVRKCWPNRVAKEQISRRLDGNQYLFLPPNRYIFHGAEVYSDSEDDVLSSSSCGSNSDSGTCQSPSLEEPMEDESEIEEFYNGLEDEPDVPERAGGAGFGTDGDDQEAINEAISVKQEVTDMNYPSNKS
- Predicted Biological Score (PBS): D

B2: RNF181 (protein, UniProt Q9P0P0 1-153, looked up)
E3 ubiquitin-protein ligase …: MASYFDEHDCEPSDPEQETRTNMLLELARSLFNRMDFEDLGLVVDWDHHLPPPAAKTVVENLPRTVIRGSQAELKCPVCLLEFEEEETAIEMPCHHLFHSSCILPWLSKTNSCPLCRYELPTDDDTYEEHRRDKARKQQQQHRLENLHGAMYT
- Predicted Biological Score (PBS): A

B3: TNIP2 (protein, UniProt Q8NFZ5 1-429, looked up)
TNFAIP3-interacting protein 2: MSRDPGSGGWEEAPRAAAALCTLYHEAGQRLRRLQDQLAARDALIARLRARLAALEGDAAPSLVDALLEQVARFREQLRRQEGGAAEAQMRQEIERLTERLEEKEREMQQLLSQPQHEREKEVVLLRRSMAEGERARAASDVLCRSLANETHQLRRTLTATAHMCQHLAKCLDERQHAQRNVGERSPDQSEHTDGHTSVQSVIEKLQEENRLLKQKVTHVEDLNAKWQRYNASRDEYVRGLHAQLRGLQIPHEPELMRKEISRLNRQLEEKINDCAEVKQELAASRTARDAALERVQMLEQQILAYKDDFMSERADRERAQSRIQELEEKVASLLHQVSWRQDSREPDAGRIHAGSKTAKYLAADALELMVPGGWRPGTGSQQPEPPAEGGHPGAAQRGQGDLQCPHCLQCFSDEQGEELLRHVAECCQ
- Predicted Biological Score (PBS): A

B4: RNF123 (protein, UniProt Q5XPI4 2-1314, looked up)
E3 ubiquitin-protein ligase …: ASKGAGMSFSRKSYRLTSDAEKSRVTGIVQEKLLNDYLNRIFSSSEHAPPAATSRKPLNFQNLPEHLDQLLQVDNEEEESQGQVEGRLGPSTVVLDHTGGFEGLLLVDDDLLGVIGHSNFGTIRSTTCVYKGKWLYEVLISSQGLMQIGWCTISCRFNQEEGVGDTHNSYAYDGNRVRKWNVTTTNYGKAWAAGDIVSCLIDLDDGTLSFCLNGVSLGTAFENLSRGLGMAYFPAISLSFKESVAFNFGSRPLRYPVAGYRPLQDPPSADLVRAQRLLGCFRAVLSVELDPVEGRLLDKESSKWRLRGQPTVLLTLAHIFHHFAPLLRKVYLVEAVLMSFLLGIVEKGTPTQAQSVVHQVLDLLWLFMEDYEVQDCLKQLMMSLLRLYRFSPIVPDLGLQIHYLRLTIAILRHEKSRKFLLSNVLFDVLRSVVFFYIKSPLRVEEAGLQELIPTTWWPHCSSREGKESTEMKEETAEERLRRRAYERGCQRLRKRIEVVEELQVQILKLLLDNKDDNGGEASRYIFLTKFRKFLQENASGRGNMPMLCPPEYMVCFLHRLISALRYYWDEYKASNPHASFSEEAYIPPQVFYNGKVDYFDLQRLGGLLSHLRKTLKDDLASKANIVIDPLELQSTAMDDLDEDEEPAPAMAQRPMQALAVGGPLPLPRPGWLSSPTLGRANRFLSTAAVSLMTPRRPLSTSEKVKVRTLSVEQRTREDIEGSHWNEGLLLGRPPEEPEQPLTENSLLEVLDGAVMMYNLSVHQQLGKMVGVSDDVNEYAMALRDTEDKLRRCPKRRKDILAELTKSQKVFSEKLDHLSRRLAWVHATVYSQEKMLDIYWLLRVCLRTIEHGDRTGSLFAFMPEFYLSVAINSYSALKNYFGPVHSMEELPGYEETLTRLAAILAKHFADARIVGTDIRDSLMQALASYVCYPHSLRAVERIPEEQRIAMVRNLLAPYEQRPWAQTNWILVRLWRGCGFGYRYTRLPHLLKTKLEDANLPSLQKPCPSTLLQQHMADLLQQGPDVAPSFLNSVLNQLNWAFSEFIGMIQEIQQAAERLERNFVDSRQLKVCATCFDLSVSLLRVLEMTITLVPEIFLDWTRPTSEMLLRRLAQLLNQVLNRVTAERNLFDRVVTLRLPGLESVDHYPILVAVTGILVQLLVRGPASEREQATSVLLADPCFQLRSICYLLGQPEPPAPGTALPAPDRKRFSLQSYADYISADELAQVEQMLAHLTSASAQAAAASLPTSEEDLCPICYAHPISAVFQPCGHKSCKACINQHLMNNKDCFFCKTTIVSVEDWEKGANTSTTSSAA
- Predicted Biological Score (PBS): A

B5: SPG21 (protein, UniProt Q9NZD8 1-308, looked up)
Maspardin: MGEIKVSPDYNWFRGTVPLKKIIVDDDDSKIWSLYDAGPRSIRCPLIFLPPVSGTADVFFRQILALTGWGYRVIALQYPVYWDHLEFCDGFRKLLDHLQLDKVHLFGASLGGFLAQKFAEYTHKSPRVHSLILCNSFSDTSIFNQTWTANSFWLMPAFMLKKIVLGNFSSGPVDPMMADAIDFMVDRLESLGQSELASRLTLNCQNSYVEPHKIRDIPVTIMDVFDQSALSTEAKEEMYKLYPNARRAHLKTGGNFPYLCRSAEVNLYVQIHLLQFHGTKYAAIDPSMVSAEELEVQKGSLGISQEEQ
- Predicted Biological Score (PBS): A

B6: SORBS3 (protein, UniProt O60504 1-671, looked up)
Vinexin: MQGPPRSLRAGLSLDDFIPGHLQSHIGSSSRGTRVPVIRNGGSNTLNFQFHDPAPRTVCNGGYTPRRDASQHPDPAWYQTWPGPGSKPSASTKIPASQHTQNWSATWTKDSKRRDKRWVKYEGIGPVDESGMPIAPRSSVDRPRDWYRRMFQQIHRKMPDLQLDWTFEEPPRDPRHLGAQQRPAHRPGPATSSSGRSWDHSEELPRSTFNYRPGAFSTVLQPSNQVLRRREKVDNVWTEESWNQFLQELETGQRPKKPLVDDPGEKPSQPIEVLLERELAELSAELDKDLRAIETRLPSPKSSPAPRRAPEQRPPAGPASAWSSSYPHAPYLGSARSLSPHKMADGGSPFLGRRDFVYPSSTRDPSASNGGGSPARREEKKRKAARLKFDFQAQSPKELTLQKGDIVYIHKEVDKNWLEGEHHGRLGIFPANYVEVLPADEIPKPIKPPTYQVLEYGEAVAQYTFKGDLEVELSFRKGEHICLIRKVNENWYEGRITGTGRQGIFPASYVQVSREPRLRLCDDGPQLPTSPRLTAAARSARHPSSPSALRSPADPIDLGGQTSPRRTGFSFPTQEPRPQTQNLGTPGPALSHSRGPSHPLDLGTSSPNTSQIHWTPYRAMYQYRPQNEDELELREGDRVDVMQQCDDGWFVGVSRRTQKFGTFPGNYVAPV
- Predicted Biological Score (PBS): A

B7: TOMM34 (protein, UniProt Q15785 1-309, looked up)
Mitochondrial import receptor …: MAPKFPDSVEELRAAGNESFRNGQYAEASALYGRALRVLQAQGSSDPEEESVLYSNRAACHLKDGNCRDCIKDCTSALALVPFSIKPLLRRASAYEALEKYPMAYVDYKTVLQIDDNVTSAVEGINRMTRALMDSLGPEWRLKLPSIPLVPVSAQKRWNSLPSENHKEMAKSKSKETTATKNRVPSAGDVEKARVLKEEGNELVKKGNHKKAIEKYSESLLCSNLESATYSNRALCYLVLKQYTEAVKDCTEALKLDGKNVKAFYRRAQAHKALKDYKSSFADISNLLQIEPRNGPAQKLRQEVKQNLH
- Predicted Biological Score (PBS): A

B8: UBAC1 (protein, UniProt Q9BSL1 1-405, looked up)
Ubiquitin-associated …: MFVQEEKIFAGKVLRLHICASDGAEWLEEATEDTSVEKLKERCLKHCAHGSLEDPKSITHHKLIHAASERVLSDARTILEENIQDQDVLLLIKKRAPSPLPKMADVSAEEKKKQDQKAPDKEAILRATANLPSYNMDRAAVQTNMRDFQTELRKILVSLIEVAQKLLALNPDAVELFKKANAMLDEDEDERVDEAALRQLTEMGFPENRATKALQLNHMSVPQAMEWLIEHAEDPTIDTPLPGQAPPEAEGATAAASEAAAGASATDEEARDELTEIFKKIRRKREFRADARAVISLMEMGFDEKEVIDALRVNNNQQNAACEWLLGDRKPSPEELDKGIDPDSPLFQAILDNPVVQLGLTNPKTLLAFEDMLENPLNSTQWMNDPETGPVMLQISRIFQTLNRT
- Predicted Biological Score (PBS): A
